Data set [1] concerns the target GFP-RhoAV14E40L (constitutively active mutant of RhoA defective in its interaction with ROCK), P61586.
In data set [2] the target is constitutively active GFP-RhoAV14, P61586.
Chain of constitutively active GFP-RhoAV14, P61586 (P61586 other isoform, or with tags, fused parts or gaps): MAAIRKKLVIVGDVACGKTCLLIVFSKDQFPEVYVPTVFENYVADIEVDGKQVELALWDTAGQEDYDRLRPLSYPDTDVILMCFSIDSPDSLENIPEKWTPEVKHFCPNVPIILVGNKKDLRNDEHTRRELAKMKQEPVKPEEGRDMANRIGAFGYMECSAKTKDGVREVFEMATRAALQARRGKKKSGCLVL

Chain of GFP-RhoAV14E40L (constitutively active mutant of RhoA defective in its interaction with ROCK), P61586 (P61586 other isoform, or with tags, fused parts or gaps mutant): as the sequence (P61586 other isoform, or with tags, fused parts or gaps) above, with E40L counted along it

B1: endogenous human ROCKII, Ser^1366 phosphorylated (HEK-293T cell extracts; human breast tumor tissue) (protein)
chain: MSRPPPTGKMPGAPETAPGDGAGASRQRKLEALIRDPRSPINVESLLDGLNSLVLDLDFPALRKNKNIDNFLNRYEKIVKKIRGLQMKAEDYDVVKVIGRGAFGEVQLVRHKASQKVYAMKLLSKFEMIKRSDSAFFWEERDIMAFANSPWVVQLFYAFQDDRYLYMVMEYMPGGDLVNLMSNYDVPEKWAKFYTAEVVLALDAIHSMGLIHRDVKPDNMLLDKHGHLKLADFGTCMKMDETGMVHCDTAVGTPDYISPEVLKSQGGDGFYGRECDWWSVGVFLYEMLVGDTPFYADSLVGTYSKIMDHKNSLCFPEDAEISKHAKNLICAFLTDREVRLGRNGVEEIRQHPFFKNDQWHWDNIRETAAPVVPELSSDIDSSNFDDIEDDKGDVETFPIPKAFVGNQLPFIGFTYYRENLLLSDSPSCRETDSIQSRKNEESQEIQKKLYTLEEHLSNEMQAKEELEQKCKSVNTRLEKTAKELEEEITLRKSVESALRQLEREKALLQHKNAEYQRKADHEADKKRNLENDVNSLKDQLEDLKKRNQNSQISTEKVNQLQRQLDETNALLRTESDTAARLRKTQAESSKQIQQLESNNRDLQDKNCLLETAKLKLEKEFINLQSALESERRDRTHGSEIINDLQGRICGLEEDLKNGKILLAKVELEKRQLQERFTDLEKEKSNMEIDMTYQLKVIQQSLEQEEAEHKATKARLADKNKIYESIEEAKSEAMKEMEKKLLEERTLKQKVENLLLEAEKRCSLLDCDLKQSQQKINELLKQKDVLNEDVRNLTLKIEQETQKRCLTQNDLKMQTQQVNTLKMSEKQLKQENNHLMEMKMNLEKQNAELRKERQDADGQMKELQDQLEAEQYFSTLYKTQVRELKEECEEKTKLGKELQQKKQELQDERDSLAAQLEITLTKADSEQLARSIAEEQYSDLEKEKIMKELEIKEMMARHKQELTEKDATIASLEETNRTLTSDVANLANEKEELNNKLKDVQEQLSRLKDEEISAAAIKAQFEKQLLTERTLKTQAVNKLAEIMNRKEPVKRGNDTDVRRKEKENRKLHMELKSEREKLTQQMIKYQKELNEMQAQIAEESQIRIELQMTLDSKDSDIEQLRSQLQALHIGLDSSSIGSGPGDAEADDGFPESRLEGWLSLPVRNNTKKFGWVKKYVIVSSKKILFYDSEQDKEQSNPYMVLDIDKLFHVRPVTQTDVYRADAKEIPRIFQILYANEGESKKEQEFPVEPVGEKSNYICHKGHEFIPTLYHFPTNCEACMKPLWHMFKPPPALECRRCHIKCHKDHMDKKEEIIAPCKVYYDISTAKNLLLLANSTEEQQKWVSRLVKKIPKKPPAPDPFARSSPRTSMKIQQNQSIRRPSRQLAPNKPS
In the case of B1, in data set [1], the “level of ROCKII Ser^1366 phosphorylation (Western blotting with antibody-II, HEK-293T extracts)” value was “neither GFP-RhoAV14E40L nor GFP-RhoAN19 transfection shows no the enhancement of RCOKII Ser^1366 phosphorylation”. Further, the “level of ROCK Ser^1366 phosphorylation (Western blotting with antibody-II, HEK-293T extracts)” value in data set [2] was “the level of ROCK Ser^1366 phosphorylation in the GFP-RhoAV14 expression cells was enhanced”.

B2: endogenous human ROCKI, Ser^1333 phosphorylated (HEK-293T cell extracts) (protein)
chain: STGDSFETRFEKMDNLLRDPKSEVNSDCLLDGLDALVYDLDFPALRKNKNIDNFLSRYKDTINKIRDLRMKAEDYEVVKVIGRGAFGEVQLVRHKSTRKVYAMKLLSKFEMIKRSDSAFFWEERDIMAFANSPWVVQLFYAFQDDRYLYMVMEYMPGGDLVNLMSNYDVPEKWARFYTAEVVLALDAIHSMGFIHRDVKPDNMLLDKSGHLKLADFGTCMKMNKEGMVRCDTAVGTPDYISPEVLKSQGGDGYYGRECDWWSVGVFLYEMLVGDTPFYADSLVGTYSKIMNHKNSLTFPDDNDISKEAKNLICAFLTDREVRLGRNGVEEIKRHLFFKNDQWAWETLRDTVAPVVPDLSSDIDTSNFDDLEEDKGEEETFPIPKAFVGNQLPFVGFTYYSNRRYLSSANPNDNRTSSNADKSLQESLQKTIYKLEEQLHNEMQLKDEMEQKCRTSNIKLDKIMKELDEEGNQRRNLESTVSQIEKEKMLLQHRINEYQRKAEQENEKRRNVENEVSTLKDQLEDLKKVSQNSQLANEKLSQLQKQLEEANDLLRTESDTAVRLRKSHTEMSKSISQLESLNRELQERNRILENSKSQTDKDYYQLQAILEAERRDRGHDSEMIGDLQARITSLQEEVKHLKHNLEKVEGERKEAQDMLNHSEKEKNNLEIDLNYKLKSLQQRLEQEVNEHKVTKARLTDKHQSIEEAKSVAMCEMEKKLKEEREAREKAENRVVQIEKQCSMLDVDLKQSQQKLEHLTGNKERMEDEVKNLTLQLEQESNKRLLLQNELKTQAFEADNLKGLEKQMKQEINTLLEAKRLLEFELAQLTKQYRGNEGQMRELQDQLEAEQYFSTLYKTQVKELKEEIEEKNRENLKKIQELQNEKETLATQLDLAETKAESEQLARGLLEEQYFELTQESKKAASRNRQEITDKDHTVSRLEEANSMLTKDIEILRRENEELTEKMKKAEEEYKLEKEEEISNLKAAFEKNINTERTLKTQAVNKLAEIMNRKDFKIDRKKANTQDLRKKEKENRKLQLELNQEREKFNQMVVKHQKELNDMQAQLVEECAHRNELQMQLASKESDIEQLRAKLLDLSDSTSVASFPSADETDGNLPESRIEGWLSVPNRGNIKRYGWKKQYVVVSSKKILFYNDEQDKEQSNPSMVLDIDKLFHVRPVTQGDVYRAETEEIPKIFQILYANEGECRKDVEMEPVQQAEKTNFQNHKGHEFIPTLYHFPANCDACAKPLWHVFKPPPALECRRCHVKCHRDHLDKKEDLICPCKVSYDVTSARDMLLLACSQDEQKKWVTHLVKKIPKNPPSGFVRASPRTLSTRSTANQSFRKVVKNTSGKTS
B2: in data set [2], the “level of ROCKI Ser^1333 phosphorylation (Western blotting with antibody-I, HEK-293T extracts)” value is “the changes on the level of ROCKI Ser^1333 phosphorylaion also indeed enhanced due to RhoA activation”.

Source of the values: US20140030731.
